This passage reports Kd and other: signal change (%) results from PMC13376213, “Systematic discovery of motif-based interactions of the auxiliary domains of USP family deubiquitinases” (Nature Communications, 2026).

The labels stand for the following.
T1: CYLD CAP-Gly1 domain, GST-tagged, Q9NQC7
T1 chain: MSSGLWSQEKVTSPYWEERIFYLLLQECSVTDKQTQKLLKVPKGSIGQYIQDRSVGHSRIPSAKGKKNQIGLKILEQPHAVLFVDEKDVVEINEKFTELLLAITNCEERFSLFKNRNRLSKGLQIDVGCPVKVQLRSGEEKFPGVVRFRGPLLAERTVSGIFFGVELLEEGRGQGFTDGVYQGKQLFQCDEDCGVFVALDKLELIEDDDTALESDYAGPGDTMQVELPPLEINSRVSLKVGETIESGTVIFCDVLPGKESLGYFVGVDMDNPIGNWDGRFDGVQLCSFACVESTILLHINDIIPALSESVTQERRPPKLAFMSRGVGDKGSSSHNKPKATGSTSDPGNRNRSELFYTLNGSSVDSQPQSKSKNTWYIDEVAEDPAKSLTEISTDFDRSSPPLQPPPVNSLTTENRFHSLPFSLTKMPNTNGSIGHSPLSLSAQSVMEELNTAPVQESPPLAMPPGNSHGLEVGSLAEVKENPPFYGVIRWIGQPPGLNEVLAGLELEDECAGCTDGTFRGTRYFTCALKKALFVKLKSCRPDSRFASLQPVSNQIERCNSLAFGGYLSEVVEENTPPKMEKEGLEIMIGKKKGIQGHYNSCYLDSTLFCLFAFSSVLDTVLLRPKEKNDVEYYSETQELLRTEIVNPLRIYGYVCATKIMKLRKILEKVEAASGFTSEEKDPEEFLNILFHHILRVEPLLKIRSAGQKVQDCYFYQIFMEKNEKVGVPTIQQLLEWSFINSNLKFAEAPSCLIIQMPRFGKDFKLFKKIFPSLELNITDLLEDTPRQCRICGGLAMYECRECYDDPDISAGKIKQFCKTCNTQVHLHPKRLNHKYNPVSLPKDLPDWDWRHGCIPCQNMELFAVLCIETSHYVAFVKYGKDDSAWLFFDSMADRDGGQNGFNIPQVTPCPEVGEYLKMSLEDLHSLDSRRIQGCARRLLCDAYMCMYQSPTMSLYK

T2: CYLD CAP-Gly3 domain, GST-tagged, Q9NQC7
T2 chain: T1 chain

Ends that are not written are not given here.

Chain of USP22 zf-UBP domain, tag cleaved (for FP) (human) (Q9UPT9 whole entry, the tested form may be a part): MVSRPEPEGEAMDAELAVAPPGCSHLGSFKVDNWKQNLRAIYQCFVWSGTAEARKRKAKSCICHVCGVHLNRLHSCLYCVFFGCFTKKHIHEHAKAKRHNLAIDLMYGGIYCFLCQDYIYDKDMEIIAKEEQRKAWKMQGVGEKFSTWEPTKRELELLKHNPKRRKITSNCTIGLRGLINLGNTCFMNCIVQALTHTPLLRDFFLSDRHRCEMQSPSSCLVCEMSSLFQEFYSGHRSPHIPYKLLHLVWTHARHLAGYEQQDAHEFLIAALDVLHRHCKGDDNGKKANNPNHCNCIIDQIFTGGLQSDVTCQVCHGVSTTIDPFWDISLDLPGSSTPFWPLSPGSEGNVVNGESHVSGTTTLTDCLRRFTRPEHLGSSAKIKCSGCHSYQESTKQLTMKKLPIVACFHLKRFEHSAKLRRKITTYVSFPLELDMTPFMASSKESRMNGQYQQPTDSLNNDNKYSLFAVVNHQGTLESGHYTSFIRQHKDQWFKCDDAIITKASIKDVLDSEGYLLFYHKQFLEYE

In the first experiment the target is USP33 DUSP2 domain (human) (UniProt Q8TEY7). In words: fluorescence polarisation; displacement: serial dilution of the unlabelled peptide against the domain (at two-fold the KD of the FITC-labelled peptide) in complex with 10 nM FITC-labelled peptide; 50 mM phosphate buffer pH 7.4; room temperature; three technical replicates; sigmoidal dose-response fit.
Chain of USP33 DUSP2 domain (human) (Q8TEY7 whole entry, the tested form may be a part): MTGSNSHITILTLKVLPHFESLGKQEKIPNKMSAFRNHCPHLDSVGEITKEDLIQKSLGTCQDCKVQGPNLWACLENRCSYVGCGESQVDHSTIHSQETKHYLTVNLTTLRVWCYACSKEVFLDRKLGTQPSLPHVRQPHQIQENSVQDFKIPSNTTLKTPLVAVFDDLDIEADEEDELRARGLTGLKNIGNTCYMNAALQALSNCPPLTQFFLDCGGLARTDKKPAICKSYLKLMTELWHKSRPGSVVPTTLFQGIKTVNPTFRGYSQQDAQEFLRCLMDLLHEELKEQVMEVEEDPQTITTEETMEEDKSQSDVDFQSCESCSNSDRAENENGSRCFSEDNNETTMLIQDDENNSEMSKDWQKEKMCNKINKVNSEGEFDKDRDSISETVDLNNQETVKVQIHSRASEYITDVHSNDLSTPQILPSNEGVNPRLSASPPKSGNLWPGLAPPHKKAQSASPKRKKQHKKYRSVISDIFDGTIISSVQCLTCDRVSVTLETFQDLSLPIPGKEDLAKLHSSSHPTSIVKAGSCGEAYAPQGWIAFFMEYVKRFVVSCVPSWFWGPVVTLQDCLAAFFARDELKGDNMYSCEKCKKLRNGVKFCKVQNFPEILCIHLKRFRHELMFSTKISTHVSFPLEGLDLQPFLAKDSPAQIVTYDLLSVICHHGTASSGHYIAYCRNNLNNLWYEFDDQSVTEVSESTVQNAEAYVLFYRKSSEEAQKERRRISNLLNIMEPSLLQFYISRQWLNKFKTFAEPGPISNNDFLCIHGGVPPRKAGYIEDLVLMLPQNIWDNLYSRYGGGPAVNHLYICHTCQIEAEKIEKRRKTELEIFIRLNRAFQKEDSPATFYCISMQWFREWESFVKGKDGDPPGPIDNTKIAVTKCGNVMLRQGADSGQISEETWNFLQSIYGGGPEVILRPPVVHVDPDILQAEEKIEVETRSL
Details: not given
On the technique in general: Polarisation of emitted light reports the rotation of a fluorescent probe.
The Kd is the concentration at which binding is half-saturated. Low values mean higher affinity, high ones lower affinity. As for Ac-SDDDLAWNIAPQGLQ-NH2 [GPR137B 348-362 peptide, unlabelled], the Kd amounted to 228 µM.

Ac-DVVDDFQLQHRHGPGY-NH2 [MFSD2B 395-409 peptide] showed a Kd of 0.75 µM.

For Ac-PYIPMDDDFQARSFDQLS-NH2 [HIF1A 564-581 L574A peptide], the Kd turned out to be 227 µM.

The molecule Ac-PYIPMDKDFQLRSFDQLS-NH2 [HIF1A 564-581 D570K peptide] had a Kd of 9.89 µM.

Turning to Ac-PYIPMDGEDFQLSPICPE-NH2 [HIF2A 531-548 peptide], the Kd came to 1180 µM.

Molecule Ac-QLEEELFQLRQGPAGY-NH2 [CCDC88B 947-961 peptide] displayed a Kd of 40.1 µM.

For a further experiment, the target named is USP20 DUSP2 domain (human) (UniProt Q9Y2K6). The description is as above.
Chain of USP20 DUSP2 domain (human) (Q9Y2K6 whole entry, the tested form may be a part): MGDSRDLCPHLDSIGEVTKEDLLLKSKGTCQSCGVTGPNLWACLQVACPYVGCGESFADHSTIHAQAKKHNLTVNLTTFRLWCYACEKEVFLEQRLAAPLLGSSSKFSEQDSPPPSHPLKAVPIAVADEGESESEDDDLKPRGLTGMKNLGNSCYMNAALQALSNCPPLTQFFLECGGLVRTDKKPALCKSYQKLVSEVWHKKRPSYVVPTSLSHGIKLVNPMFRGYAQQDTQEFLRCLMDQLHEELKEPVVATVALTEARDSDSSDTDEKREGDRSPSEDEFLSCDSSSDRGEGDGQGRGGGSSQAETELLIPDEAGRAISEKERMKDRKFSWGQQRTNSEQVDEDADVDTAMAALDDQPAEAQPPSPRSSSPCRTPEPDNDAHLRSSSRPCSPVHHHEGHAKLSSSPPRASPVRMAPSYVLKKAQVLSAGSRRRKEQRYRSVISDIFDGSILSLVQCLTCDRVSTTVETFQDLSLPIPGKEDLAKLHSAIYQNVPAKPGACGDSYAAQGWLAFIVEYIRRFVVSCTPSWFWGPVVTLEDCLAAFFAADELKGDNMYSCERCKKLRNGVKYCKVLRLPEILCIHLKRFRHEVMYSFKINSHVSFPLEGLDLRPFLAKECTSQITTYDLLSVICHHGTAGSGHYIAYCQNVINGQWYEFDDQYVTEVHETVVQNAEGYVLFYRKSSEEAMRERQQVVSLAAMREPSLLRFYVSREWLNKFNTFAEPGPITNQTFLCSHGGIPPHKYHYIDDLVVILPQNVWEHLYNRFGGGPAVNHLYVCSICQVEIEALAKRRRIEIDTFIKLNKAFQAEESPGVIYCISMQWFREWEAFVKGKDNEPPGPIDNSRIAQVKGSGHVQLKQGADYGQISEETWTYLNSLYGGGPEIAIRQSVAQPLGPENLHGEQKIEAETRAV
Details: not given
Regarding Ac-SDDDLAWNIAPQGLQ-NH2 [GPR137B 348-362 peptide, unlabelled], the Kd is 10.2 µM.

Molecule Ac-DVVDDFQLQHRHGPGY-NH2 [MFSD2B 395-409 peptide] yielded a Kd of 44.7 µM.

Ac-PYIPMDKDFQLRSFDQLS-NH2 [HIF1A 564-581 D570K peptide] came in with a Kd of 18.8 µM.

On to Ac-PYIPMDGEDFQLSPICPE-NH2 [HIF2A 531-548 peptide], for which the Kd was determined as 235 µM.

Ac-QLEEELFQLRQGPAGY-NH2 [CCDC88B 947-961 peptide] had a Kd of 22.4 µM.

In a further experiment the target is T1, CYLD CAP-Gly1 domain, GST-tagged, Q9NQC7. In words: peptide SPOT array alanine scanning. As to conditions: chain shown with the change;; parent: est. 0; read off a plot.
Consider PDAELQRMEQAAERRR [RBM25_(558-573) peptide, P49756 E568A], for which the other: signal change (%) is -15%.

In the case of PDAELQRMEAEAERRR [RBM25_(558-573) peptide, P49756 Q567A], the other: signal change (%) is -25%.

PDAELQRMEQEAEARR [RBM25_(558-573) peptide, P49756 R571A]: the other: signal change (%) was -40%.

Consider ADAELQRMEQEAERRR [RBM25_(558-573) peptide, P49756 P558A], for which the other: signal change (%) was -5%.

Turning to PAAELQRMEQEAERRR [RBM25_(558-573) peptide, P49756 D559A], the other: signal change (%) was -10%.

With PDAELQRMEQEAERAR [RBM25_(558-573) peptide, P49756 R572A], the other: signal change (%) is -95%.

Consider PDAELQRMAQEAERRR [RBM25_(558-573) peptide, P49756 E566A], for which the other: signal change (%) is -15%.

PDAELARMEQEAERRR [RBM25_(558-573) peptide, P49756 Q563A]: the other: signal change (%) is -35%.

As for PDAELQRAEQEAERRR [RBM25_(558-573) peptide, P49756 M565A], the other: signal change (%) is -90%.

With PDAELQAMEQEAERRR [RBM25_(558-573) peptide, P49756 R564A], the other: signal change (%) was -65%.

On to PDAELQRMEQEAARRR [RBM25_(558-573) peptide, P49756 E570A], for which the other: signal change (%) is -10%.

Regarding PDAELQRMEQEAERRA [RBM25_(558-573) peptide, P49756 R573A], the other: signal change (%) is -95%.

As for PDAALQRMEQEAERRR [RBM25_(558-573) peptide, P49756 E561A], the other: signal change (%) is -30%.

Regarding PDAEAQRMEQEAERRR [RBM25_(558-573) peptide, P49756 L562A], the other: signal change (%) was -95%.

A further experiment deals with T2, CYLD CAP-Gly3 domain, GST-tagged, Q9NQC7. In words: peptide SPOT array alanine scanning. As to conditions: chain shown with the change;; parent: est. 0; read off a plot.
For GGVFKDEIYIPAQEED [HECTD4_(3003-3018) peptide, Q9Y4D8 L3014A], the other: signal change (%) was determined as 50%.

Turning to GGVFKDEIYIALQEED [HECTD4_(3003-3018) peptide, Q9Y4D8 P3013A], the other: signal change (%) was -85%.

In the case of AGVFKDEIYIPLQEED [HECTD4_(3003-3018) peptide, Q9Y4D8 G3003A], the other: signal change (%) is -5%.

As for GGVFKDEIYIPLQAED [HECTD4_(3003-3018) peptide, Q9Y4D8 E3016A], the other: signal change (%) was -25%.

Consider GAVFKDEIYIPLQEED [HECTD4_(3003-3018) peptide, Q9Y4D8 G3004A], for which the other: signal change (%) is -95%.

On to GGVFADEIYIPLQEED [HECTD4_(3003-3018) peptide, Q9Y4D8 K3007A], for which the other: signal change (%) is -95%.

In the case of GGVFKDEIYAPLQEED [HECTD4_(3003-3018) peptide, Q9Y4D8 I3012A], the other: signal change (%) was -90%.

GGAFKDEIYIPLQEED [HECTD4_(3003-3018) peptide, Q9Y4D8 V3005A]: the other: signal change (%) was -70%.

In the case of GGVFKDEIAIPLQEED [HECTD4_(3003-3018) peptide, Q9Y4D8 Y3011A], the other: signal change (%) is -95%.

As for GGVAKDEIYIPLQEED [HECTD4_(3003-3018) peptide, Q9Y4D8 F3006A], the other: signal change (%) was -95%.

With GGVFKDEAYIPLQEED [HECTD4_(3003-3018) peptide, Q9Y4D8 I3010A], the other: signal change (%) was -95%.

GGVFKDEIYIPLQEAD [HECTD4_(3003-3018) peptide, Q9Y4D8 E3017A]: the other: signal change (%) was determined as 55%.

On to GGVFKDAIYIPLQEED [HECTD4_(3003-3018) peptide, Q9Y4D8 E3009A], for which the other: signal change (%) was -95%.

Regarding GGVFKDEIYIPLAEED [HECTD4_(3003-3018) peptide, Q9Y4D8 Q3015A], the other: signal change (%) is -15%.

Take GGVFKAEIYIPLQEED [HECTD4_(3003-3018) peptide, Q9Y4D8 D3008A]: the other: signal change (%) is -95%.

Consider GGVFKDEIYIPLQEEA [HECTD4_(3003-3018) peptide, Q9Y4D8 D3018A], for which the other: signal change (%) is 35%.

The next experiment has as its target USP22 zf-UBP domain, tag cleaved (for FP) (human) (UniProt Q9UPT9). In words: fluorescence polarisation; saturation or displacement not stated for this experiment; 50 mM phosphate buffer pH 7.4, room temperature.
Details: not given
Consider VPSPEAFLGKPWSSWIDAAKLH-NH2 (also: N-terminus FITC-labeled or acetylated) [ATXN7L1_(36-57) peptide], for which the Kd was 0.1 µM.

In turn, VPSPEAFLGKPWSSWID-NH2 (also: N-terminus FITC-labeled or acetylated) [ATXN7L1_(36-52) peptide] had a Kd of 11 µM.

Consider VPSLDDFAGQSWSSWVERADLP-NH2 (also: N-terminus FITC-labeled or acetylated) [ATXN7L2_(18-39) peptide], for which the Kd came to 3 µM.

VPSLDDFAGQSWSSWVE-NH2 (also: N-terminus FITC-labeled or acetylated) [ATXN7L2_(18-34) peptide] had a Kd of 19 µM.
